According to US20250353931A1 (CHIMERIS UK, published 2025):

Biological target: CD3 on T cells (Jurkat T cells; primary human T cells) (human, UniProt P07766 23-207; P04234 22-171; P09693 23-182)
Test: flow cytometry on Jurkat T cells, APC-conjugated anti-His tag secondary antibody
Protocol: Each multi-specific reagent was then screened for binding to Jurkat T cells. Jurkat T cells were plated into individual wells of a 96-well plate (˜100,000 cells per well in 200 ul ImmunoCult™-XF T Cell Expansion Medium (StemCell Technologies)). […] As a control, CHO cell culture medium alone was added. Following incubation for two hours, cells were washed and stained in 50 μl FACS buffer (PBS (Gibco)/2% FBS (LabTech)) containing a 1/100 dilution of an APC-conjugated anti-His tag secondary antibody (BioLegend). Cells were washed again and resuspended in 100 μl FACS buffer plus 0.1 μg/ml DAPI live/dead staining dye (Roche). Cell samples were run on a MACSQuant® Analyzer 10 Flow Cytometer and analyzed using the FlowJo (v10) software.

Chain of CD3 on T cells (Jurkat T cells; primary human T cells) (P07766 23-207 limits assumed, chain 1 of 3): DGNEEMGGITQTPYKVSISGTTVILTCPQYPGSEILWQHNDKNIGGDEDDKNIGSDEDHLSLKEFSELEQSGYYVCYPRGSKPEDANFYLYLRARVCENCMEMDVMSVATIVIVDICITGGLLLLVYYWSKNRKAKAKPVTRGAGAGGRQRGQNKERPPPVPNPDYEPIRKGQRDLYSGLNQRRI
Chain of CD3 on T cells (Jurkat T cells; primary human T cells) (P04234 22-171 limits assumed, chain 2 of 3): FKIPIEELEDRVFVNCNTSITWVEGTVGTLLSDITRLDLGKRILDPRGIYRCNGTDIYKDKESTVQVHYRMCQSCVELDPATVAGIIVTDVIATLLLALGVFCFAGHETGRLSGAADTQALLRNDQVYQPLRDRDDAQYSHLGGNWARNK
Chain of CD3 on T cells (Jurkat T cells; primary human T cells) (P09693 23-182 limits assumed, chain 3 of 3): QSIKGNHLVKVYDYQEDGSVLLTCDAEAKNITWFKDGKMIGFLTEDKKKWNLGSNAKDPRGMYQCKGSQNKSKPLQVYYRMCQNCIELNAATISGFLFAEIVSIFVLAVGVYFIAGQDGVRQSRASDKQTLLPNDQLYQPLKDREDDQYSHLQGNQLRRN

B1: CM04P (anti-PEG _ anti-EpCAM) (bispecific antibody)
chain: QIQLVQSGPELKKPGETVKISCKASGYTFKNYGMNWVKQAPGKGLKWMGWINTYTGQPIYANDFKGRFAFSLETSASTAYLQINNLKNEDTATYFCARDWGPYWGQGTLVIVSASPNSASHSGSAPQTSSAPGSQNIMMTQSPSSLAVSAGEKVTVNCKSSQSVLYSSNQMNYLAWYQQKPGQSPKLLIYWASTRESGVPDRFTGSGSGTDFTLTISSVQTEDLAVYYCLQYLSSWTFGGGTKLEIKGGSSRSSSSGGGGSGGGGQVKLQQSGPELKKPGETVKISCKASGYTFTNYGMNWVKQAPGKGLKWMGWINTYTGESTYADDFKGRFAFSLETSASAAYLQINNLKNEDTATYFCARFAIKGDYWGQGTTVTVSSSPNSASHSGSAPQTSSAPGSQDIVLTQSPFSNPVTLGTSASISCRSTKSLLHSNGITYLYWYLQKPGQSPQLLIYQMSNLASGVPDRFSSSGSGTDFTLRISRVEAEDVGVYYCAQNLEIPRTFGGGTKLEIKGGGGSHHHHHHHH
notes: Intended as a negative control; also called αPEG/αEPCAM
Question: Does B1 bind?
Answer: Result: no binding (tested: 20 µl of CHO culture supernatant)
